Assay results: patent US20110200629A1

Biological target: T1, HLA-A0201 (human), P04439
T1 chain: not shown

## RGYVYQGL (modifications not checked) [murine H-2 Kb binding peptide VSV8 (RGYVYQGL, SEQ ID NO:6)]
  % MFI increase: 5.6%
